{
  "source": "the supplement of paper PMC9112550",
  "about": "“Optimization of the antimicrobial peptide Bac7 by deep mutational scanning” (BMC Biology, 2022);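 also: peptides expressed intracellularly from a pBAD plasmid library in pooled LB shake-flask culture, induced with 0.3% L-arabinose, DNA abundance read by NGS, three biological replicates, DESeq2 with apeglm shrinkage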",
  "data": [
    {"system": "Escherichia coli TOP10", "experiment": "shrunken log2 fold change of peptide-encoding DNA abundance (4.5 h post-induction vs induction); higher = less antimicrobial activity (less host growth inhibition)", "settings": "time post-induction: 4.5 h; library: site-saturation at positions 5, 18, 19, 20", "values": [
      {"sequence": "RRIRERPPRLPRPRPRPEFSPRP", "shrunken log2 fold change": -0.178},
      {"sequence": "RRIRIRPPRLPRPRPRPMRYPRP", "shrunken log2 fold change": -0.176},
      {"sequence": "RRIRQRPPRLPRPRPRPKKWPRP", "shrunken log2 fold change": -0.0403},
      {"sequence": "RRIRQRPPRLPRPRPRPDYMPRP", "shrunken log2 fold change": -0.453},
      {"sequence": "RRIRPRPPRLPRPRPRPNREPRP", "shrunken log2 fold change": 0.026},
      {"sequence": "RRIRERPPRLPRPRPRPSATPRP", "shrunken log2 fold change": 0.0731},
      {"sequence": "RRIRHRPPRLPRPRPRPTYGPRP", "shrunken log2 fold change": -0.106},
      {"sequence": "RRIRGRPPRLPRPRPRPSQQPRP", "shrunken log2 fold change": -0.147},
      {"sequence": "RRIRLRPPRLPRPRPRPQDPPRP", "shrunken log2 fold change": -0.101},
      {"sequence": "RRIRTRPPRLPRPRPRPIAKPRP", "shrunken log2 fold change": -0.3},
      {"sequence": "RRIRSRPPRLPRPRPRPDHYPRP", "shrunken log2 fold change": -0.341},
      {"sequence": "RRIRKRPPRLPRPRPRPTRHPRP", "shrunken log2 fold change": 0.482},
      {"sequence": "RRIRQRPPRLPRPRPRPRIHPRP", "shrunken log2 fold change": -0.234},
      {"sequence": "RRIRFRPPRLPRPRPRPYTWPRP", "shrunken log2 fold change": -1.05},
      {"sequence": "RRIRIRPPRLPRPRPRPHQNPRP", "shrunken log2 fold change": -0.165},
      {"sequence": "RRIRMRPPRLPRPRPRPQNTPRP", "shrunken log2 fold change": 0.0152},
      {"sequence": "RRIRTRPPRLPRPRPRPIIMPRP", "shrunken log2 fold change": -0.305},
      {"sequence": "RRIRPRPPRLPRPRPRPCSVPRP", "shrunken log2 fold change": 0.0152},
      {"sequence": "RRIRLRPPRLPRPRPRPYDYPRP", "shrunken log2 fold change": -0.0244},
      {"sequence": "RRIRIRPPRLPRPRPRPDVLPRP", "shrunken log2 fold change": -1},
      {"sequence": "RRIRPRPPRLPRPRPRPQQRPRP", "shrunken log2 fold change": 0.0201},
      {"sequence": "RRIRDRPPRLPRPRPRPDNTPRP", "shrunken log2 fold change": -0.103},
      {"sequence": "RRIRGRPPRLPRPRPRPGHTPRP", "shrunken log2 fold change": 0.0237},
      {"sequence": "RRIRYRPPRLPRPRPRPLVAPRP", "shrunken log2 fold change": -0.274},
      {"sequence": "RRIRIRPPRLPRPRPRPMDLPRP", "shrunken log2 fold change": -1.16},
      {"sequence": "RRIRCRPPRLPRPRPRPLKNPRP", "shrunken log2 fold change": -0.208},
      {"sequence": "RRIRVRPPRLPRPRPRPTKFPRP", "shrunken log2 fold change": -0.248},
      {"sequence": "RRIRNRPPRLPRPRPRPIWWPRP", "shrunken log2 fold change": -0.141},
      {"sequence": "RRIRIRPPRLPRPRPRPQFHPRP", "shrunken log2 fold change": -1.12},
      {"sequence": "RRIRCRPPRLPRPRPRPMEIPRP", "shrunken log2 fold change": -1.16},
      {"sequence": "RRIRFRPPRLPRPRPRPVAAPRP", "shrunken log2 fold change": 1.41},
      {"sequence": "RRIRIRPPRLPRPRPRPVHCPRP", "shrunken log2 fold change": -0.335},
      {"sequence": "RRIRQRPPRLPRPRPRPSDRPRP", "shrunken log2 fold change": -0.264},
      {"sequence": "RRIRYRPPRLPRPRPRPKCWPRP", "shrunken log2 fold change": 0.14},
      {"sequence": "RRIRCRPPRLPRPRPRPYRTPRP", "shrunken log2 fold change": -0.132},
      {"sequence": "RRIRERPPRLPRPRPRPDSCPRP", "shrunken log2 fold change": -0.149},
      {"sequence": "RRIRVRPPRLPRPRPRPKTAPRP", "shrunken log2 fold change": 0.0988},
      {"sequence": "RRIRVRPPRLPRPRPRPRQNPRP", "shrunken log2 fold change": 0.00342},
      {"sequence": "RRIRWRPPRLPRPRPRPEPPPRP", "shrunken log2 fold change": 0.977},
      {"sequence": "RRIRYRPPRLPRPRPRPFVDPRP", "shrunken log2 fold change": -0.0498},
      {"sequence": "RRIRYRPPRLPRPRPRPQWSPRP", "shrunken log2 fold change": -0.0453},
      {"sequence": "RRIRLRPPRLPRPRPRPSATPRP", "shrunken log2 fold change": 0.321},
      {"sequence": "RRIRTRPPRLPRPRPRPVLQPRP", "shrunken log2 fold change": 4.38},
      {"sequence": "RRIRFRPPRLPRPRPRPTISPRP", "shrunken log2 fold change": -0.611},
      {"sequence": "RRIRQRPPRLPRPRPRPFIIPRP", "shrunken log2 fold change": 0.043},
      {"sequence": "RRIRKRPPRLPRPRPRPAQLPRP", "shrunken log2 fold change": 0.0282},
      {"sequence": "RRIRVRPPRLPRPRPRPMPLPRP", "shrunken log2 fold change": -0.348},
      {"sequence": "RRIRFRPPRLPRPRPRPDVVPRP", "shrunken log2 fold change": -0.181},
      {"sequence": "RRIRGRPPRLPRPRPRPCEFPRP", "shrunken log2 fold change": 0.0669},
      {"sequence": "RRIRHRPPRLPRPRPRPEPWPRP", "shrunken log2 fold change": 0.171},
      {"sequence": "RRIRPRPPRLPRPRPRPMGLPRP", "shrunken log2 fold change": 0.0513},
      {"sequence": "RRIRHRPPRLPRPRPRPCMNPRP", "shrunken log2 fold change": -0.0607},
      {"sequence": "RRIRVRPPRLPRPRPRPAKIPRP", "shrunken log2 fold change": 0.117},
      {"sequence": "RRIRWRPPRLPRPRPRPNSQPRP", "shrunken log2 fold change": -0.0188},
      {"sequence": "RRIRRRPPRLPRPRPRPPWVPRP", "shrunken log2 fold change": 0.535},
      {"sequence": "RRIRKRPPRLPRPRPRPKIHPRP", "shrunken log2 fold change": -0.152},
      {"sequence": "RRIRDRPPRLPRPRPRPGGMPRP", "shrunken log2 fold change": 0.0874},
      {"sequence": "RRIRPRPPRLPRPRPRPNSTPRP", "shrunken log2 fold change": -0.23},
      {"sequence": "RRIRERPPRLPRPRPRPRANPRP", "shrunken log2 fold change": -0.158},
      {"sequence": "RRIRIRPPRLPRPRPRPYICPRP", "shrunken log2 fold change": -0.393},
      {"sequence": "RRIRFRPPRLPRPRPRPIHHPRP", "shrunken log2 fold change": -0.0432},
      {"sequence": "RRIRERPPRLPRPRPRPIEGPRP", "shrunken log2 fold change": 0.0039},
      {"sequence": "RRIRIRPPRLPRPRPRPGISPRP", "shrunken log2 fold change": -0.27},
      {"sequence": "RRIRRRPPRLPRPRPRPGLPPRP", "shrunken log2 fold change": 0.33},
      {"sequence": "RRIRSRPPRLPRPRPRPYNCPRP", "shrunken log2 fold change": -0.171},
      {"sequence": "RRIRTRPPRLPRPRPRPSAYPRP", "shrunken log2 fold change": -0.144},
      {"sequence": "RRIRQRPPRLPRPRPRPNFLPRP", "shrunken log2 fold change": -0.492},
      {"sequence": "RRIRTRPPRLPRPRPRPQEGPRP", "shrunken log2 fold change": -0.0173},
      {"sequence": "RRIRMRPPRLPRPRPRPRKNPRP", "shrunken log2 fold change": 0.433},
      {"sequence": "RRIRMRPPRLPRPRPRPYRGPRP", "shrunken log2 fold change": 0.148},
      {"sequence": "RRIRVRPPRLPRPRPRPDWGPRP", "shrunken log2 fold change": 0.184},
      {"sequence": "RRIRWRPPRLPRPRPRPSNQPRP", "shrunken log2 fold change": -0.561},
      {"sequence": "RRIRKRPPRLPRPRPRPAPVPRP", "shrunken log2 fold change": 0.668},
      {"sequence": "RRIRPRPPRLPRPRPRPILSPRP", "shrunken log2 fold change": -0.038},
      {"sequence": "RRIRQRPPRLPRPRPRPSNHPRP", "shrunken log2 fold change": -0.346},
      {"sequence": "RRIRVRPPRLPRPRPRPHCGPRP", "shrunken log2 fold change": -0.309},
      {"sequence": "RRIRQRPPRLPRPRPRPQGQPRP", "shrunken log2 fold change": 0.254},
      {"sequence": "RRIRSRPPRLPRPRPRPECPPRP", "shrunken log2 fold change": -0.0934},
      {"sequence": "RRIRLRPPRLPRPRPRPNIPPRP", "shrunken log2 fold change": -0.823},
      {"sequence": "RRIRTRPPRLPRPRPRPKPWPRP", "shrunken log2 fold change": 0.363},
      {"sequence": "RRIRTRPPRLPRPRPRPAYIPRP", "shrunken log2 fold change": 0.412},
      {"sequence": "RRIRTRPPRLPRPRPRPQWSPRP", "shrunken log2 fold change": -0.431},
      {"sequence": "RRIRIRPPRLPRPRPRPEFWPRP", "shrunken log2 fold change": -0.0113},
      {"sequence": "RRIRLRPPRLPRPRPRPPHNPRP", "shrunken log2 fold change": 0.504},
      {"sequence": "RRIRDRPPRLPRPRPRPQLLPRP", "shrunken log2 fold change": 0.206},
      {"sequence": "RRIRFRPPRLPRPRPRPVQYPRP", "shrunken log2 fold change": -0.445},
      {"sequence": "RRIRHRPPRLPRPRPRPGMAPRP", "shrunken log2 fold change": 0.0763},
      {"sequence": "RRIRFRPPRLPRPRPRPFKCPRP", "shrunken log2 fold change": -2.13},
      {"sequence": "RRIRMRPPRLPRPRPRPGWWPRP", "shrunken log2 fold change": -0.026},
      {"sequence": "RRIRVRPPRLPRPRPRPFLRPRP", "shrunken log2 fold change": -0.563},
      {"sequence": "RRIRRRPPRLPRPRPRPTVKPRP", "shrunken log2 fold change": 0.106},
      {"sequence": "RRIRCRPPRLPRPRPRPIFWPRP", "shrunken log2 fold change": 0.235},
      {"sequence": "RRIRWRPPRLPRPRPRPGHNPRP", "shrunken log2 fold change": 0.31},
      {"sequence": "RRIRKRPPRLPRPRPRPAQAPRP", "shrunken log2 fold change": 0.281},
      {"sequence": "RRIRMRPPRLPRPRPRPCKAPRP", "shrunken log2 fold change": 0.173},
      {"sequence": "RRIRMRPPRLPRPRPRPHAKPRP", "shrunken log2 fold change": 0.256},
      {"sequence": "RRIRCRPPRLPRPRPRPRHEPRP", "shrunken log2 fold change": -0.117},
      {"sequence": "RRIRSRPPRLPRPRPRPCFWPRP", "shrunken log2 fold change": 0.294},
      {"sequence": "RRIRWRPPRLPRPRPRPWYIPRP", "shrunken log2 fold change": -0.172},
      {"sequence": "RRIRGRPPRLPRPRPRPDKYPRP", "shrunken log2 fold change": -0.136},
      {"sequence": "RRIRCRPPRLPRPRPRPCDYPRP", "shrunken log2 fold change": -0.0812},
      {"sequence": "RRIRWRPPRLPRPRPRPRYQPRP", "shrunken log2 fold change": -0.188},
      {"sequence": "RRIRLRPPRLPRPRPRPIRRPRP", "shrunken log2 fold change": 0.0431},
      {"sequence": "RRIRFRPPRLPRPRPRPCSFPRP", "shrunken log2 fold change": -0.349},
      {"sequence": "RRIRERPPRLPRPRPRPWFYPRP", "shrunken log2 fold change": -0.985},
      {"sequence": "RRIRHRPPRLPRPRPRPHMDPRP", "shrunken log2 fold change": -0.162},
      {"sequence": "RRIRFRPPRLPRPRPRPYQCPRP", "shrunken log2 fold change": -0.0374},
      {"sequence": "RRIRKRPPRLPRPRPRPRGAPRP", "shrunken log2 fold change": 0.891},
      {"sequence": "RRIRPRPPRLPRPRPRPKEEPRP", "shrunken log2 fold change": 0.0604}
    ]}
  ]
}
